Measured values taken from paper PMC7687109, “Effect of structural stability on endolysosomal degradation and T‐cell reactivity of major shrimp allergen tropomyosin” (Allergy, 2020).

Columns and labels:
Test in all cases: SEC-MALS; purified recombinant tropomyosin, neutral pH (pH 7.4), constant temperature of 25°C; molar mass from the peaks
[1] = biological target: Der p 10 (house dust mite tropomyosin) (Dermatophagoides pteronyssinus)
[2] = biological target: Pen m 1 (black tiger shrimp tropomyosin) (Penaeus monodon)
[3] = biological target: the molecule itself

Molecule	stoichiometry N [3]	other results
Der p 10 (house dust mite tropomyosin) (natural protein)	–	stoichiometry N [1]: 2
Pen m 1 (black tiger shrimp tropomyosin) (natural protein)	–	stoichiometry N [2]: 2
Bla g 7 (German cockroach tropomyosin) (natural protein, Blattella germanica, UniProt Q9NG56 1-284, looked up) MDAIKKKMQAMKLEKDNAMDRALLCEQQARDANIRAEKAEEEARSLQKKIQQIENDLDQTMEQLMQVNAKLDEKDKALQNAESEVAALNRRIQLLEEDLERSEERLATATAKLAEASQAADESERARKILESKGLADEERMDALENQLKEARFMAEEADKKYDEVARKLAMVEADLERAEERAETGESKIVELEEELRVVGNNLKSLEVSEEKANLREEEYKQQIKTLNTRLKEAEARAEFAERSVQKLQKEVDRLEDELVHEKEKYKYICDDLDMTFTELIGN	2	–
Ani s 3 (Anisakis tropomyosin) (natural protein, Anisakis simplex, UniProt Q9NAS5 1-284, looked up, also called fish parasite tropomyosin) MDAIKKKMQAMKIEKDNALDRADAAEEKVRQMTDKLERIEEELRDTQKKMMQTENDLDKAQEDLSTANSNLEEKEKKVQEAEAEVAALNRRMTLLEEELERAEERLKLATAKLEEATHTADESERVRKVMENRSFQDEERANTVESQLKEAQMLAEEADRKYDEVARKLTMVEADLERAEERAETGENKIVELEEELRVVGNNLKSLEVSEEKALQREDSYEEQIRTVSARLKEAETRAEFAERSVQKLQKEVDRLEDELVHEKERYKSISEELDQTFQELSGY	2	–
